# Data published in patent US20220242962A1 (APTEVO RESEARCH AND DEVELOPMENT, published 2022).
# Numbering of substitutions follows the chain as printed. Numbers in names are those of the source.
# T1: Full-length Cyno OX40 (cynomolgus monkey, UniProt P43489 29-277 (human entry))
# T1 construct: on CHO-K1SV cells; also called OXF004; cynomolgus OX40
# T1 chain: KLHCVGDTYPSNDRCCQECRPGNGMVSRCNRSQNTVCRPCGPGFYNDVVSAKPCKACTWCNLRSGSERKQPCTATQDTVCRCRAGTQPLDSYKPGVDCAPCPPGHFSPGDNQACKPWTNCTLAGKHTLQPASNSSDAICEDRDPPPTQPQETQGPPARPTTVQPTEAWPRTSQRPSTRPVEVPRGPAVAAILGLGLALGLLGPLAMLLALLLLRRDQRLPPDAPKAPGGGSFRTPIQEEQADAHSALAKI
# T2: Human OX40 ECD-AFH (human)
# T2 construct: ECD'; entry includes the C-terminal tags; also called OXF003; Human OX40 ECD-avi-flag-his
# T2 chain: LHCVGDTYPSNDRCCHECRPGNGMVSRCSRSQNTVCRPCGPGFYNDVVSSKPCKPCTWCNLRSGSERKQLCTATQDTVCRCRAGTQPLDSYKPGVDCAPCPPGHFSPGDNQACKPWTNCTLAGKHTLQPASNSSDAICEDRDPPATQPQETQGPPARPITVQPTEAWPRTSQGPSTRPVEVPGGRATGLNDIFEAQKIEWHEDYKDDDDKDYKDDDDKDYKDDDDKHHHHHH
# T3: Cyno 4-1BB ECD-AFH (cynomolgus monkey)
# T3 construct: entry includes the tags; also called FOB004; Cyno CD137 ECD-avi-flag-his
# T3 chain: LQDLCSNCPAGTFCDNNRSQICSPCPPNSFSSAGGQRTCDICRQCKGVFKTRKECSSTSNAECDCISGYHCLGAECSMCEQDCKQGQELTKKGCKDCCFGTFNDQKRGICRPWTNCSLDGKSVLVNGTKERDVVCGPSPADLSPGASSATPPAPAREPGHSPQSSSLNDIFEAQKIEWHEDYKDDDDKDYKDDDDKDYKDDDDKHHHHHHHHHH
# T4: Full-length Cyno 4-1BB (cynomolgus monkey, UniProt Q07011 24-255 (human entry))
# T4 construct: on Jurkat or CHO cells; also called FOB006; cynomolgus 4-1BB
# T4 chain: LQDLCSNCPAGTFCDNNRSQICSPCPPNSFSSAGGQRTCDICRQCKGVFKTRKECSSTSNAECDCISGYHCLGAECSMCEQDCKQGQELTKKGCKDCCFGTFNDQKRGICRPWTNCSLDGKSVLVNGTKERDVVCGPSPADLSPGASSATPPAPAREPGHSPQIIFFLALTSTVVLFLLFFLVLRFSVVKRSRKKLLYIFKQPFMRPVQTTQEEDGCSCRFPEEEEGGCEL
# B1: FXX01066 (bispecific antibody)
# chain: EVQLVQSGAEVKKPGASVKVSCKASGYTFTSYWMNWVRQAPGQGLEWMGNIYPSGGSTNYAQKFQGRVTMTVDTSTSTVYMELSSLRSEDTAVYYCASFSDGYYAYAMDYWGQGTLVTVSSGGGGSGGGGSGGGGSGGGGSEIVMTQSPATLSLSPGERATLSCRASQSVSSYLNWYQQKPGQAPRLLIYYASRRHTGIPARFSGSGSGTDFTLTISSLQPEDFAVYYCQQGYNLPYTFGQGTKVEIKEPKSSDKTHTCPPCPAPPAAAPSVFLFPPKPKDTLMISRTPEVTCVVVDVSHEDPEVKFNWYVDGVEVHNAKTKPREEQYNSTYRVVSVLTVLHQDWLNGKEYKCAVSNKALPAPIEKTISKAKGQPREPQVYTLPPSRDELTKNQVSLTCLVKGFYPSDIAVEWESNGQPENNYKTTPPVLDSDGSFFLYSKLTVDKSRWQQGNVFSCSVMHEALHNHYTQKSLSLSPGGGGSPSSYVLTQPPSVSVAPGQTARITCGGNNIGSKSVNWFQQKPGQAPVLVVYDDSGRPSGIPERFSGSTSGNTATLTISRVEAGDEADYYCQVWDSSSDHVVFGGGTKLTVLGGGGSGGGGSGGGGSGGGGSQVQLVESGGGVVQPGRSLRLSCAASGFTLSYYGMHWVRQAPGKGLEWVAAISHDGSDKYYADSVKGRFTISRDNSKNTLYLQMNSLRAEDTAVYYCSNDQFDPWGQGTLVTVSSR
# notes: ADAPTIR scFv-Fc-scFv, anti-4-1BB (VH-VL) N-terminal, anti-OX40 C-terminal, PAA (del) Fc; also called FX01066
# B2: FXX01101 (bispecific antibody)
# chain: B1 chain with T690R
# notes: ADAPTIR anti-4-1BB (HL) x anti-OX40 with T86R; PAA (del) Fc; also called FX01101
# B3: FXX01102 (bispecific antibody)
# chain: B1 chain with Q500K, T690R
# notes: ADAPTIR anti-4-1BB (HL) x anti-OX40 with Q17K and T86R; PAA (del) Fc; also called FX01102
# B4: FXX01111 (bispecific antibody)
# chain: B1 chain with I541V, E543N
# notes: ADAPTIR anti-4-1BB x anti-OX40, pI variant; PAA (del) Fc
# B5: FXX01115 (bispecific antibody)
# chain: B1 chain with I541V, E543N, T690R
# notes: as for B4
# B6: FXX01119 (bispecific antibody)
# chain: B1 chain with Q500K, I541V, E543N, T690R
# notes: as for B4
# Biological target: T1, Full-length Cyno OX40
# Experiment: flow cytometry on CHOK1SV cells transfected with cynomolgus OX40, goat anti-human Fc secondary antibody, MFI (Mean)
row,EC50 (read off the curve) [nM],Binder
1,~1,B1
2,~0.8,B2
3,~0.8,B3

# Biological target: T2, Human OX40 ECD-AFH
# Experiment: SPR (Biacore 8K), construct captured, monovalent ECD
Kd [nM],koff [s⁻¹],kon [M⁻¹ s⁻¹],Binder
< 1,0.00027,1.1e+06,B1
< 1,0.00029,980000,B2
< 1,0.00038,930000,B4
< 1,0.00025,1e+06,B3
< 1,0.0003,980000,B5
0.3,0.00031,920000,B6

# Biological target: T3, Cyno 4-1BB ECD-AFH
# Experiment: as above
Kd [nM],koff [s⁻¹],kon [M⁻¹ s⁻¹],Binder
92,0.0092,100000,B1
76,0.0077,100000,B2
81,0.008,99000,B4
75,0.0074,98000,B3
72,0.0074,100000,B5
79,0.0075,95000,B6

# Biological target: T5, Human 4-1BB ECD-AFH (human)
# T5 construct: entry includes the tags; also called FOB003; HUMAN CD137 ECD-AVI-FLAG-HIS
# Experiment: as above
Kd [nM],koff [s⁻¹],kon [M⁻¹ s⁻¹],Binder
16,0.0043,270000,B1
17,0.0046,270000,B2
17,0.0045,270000,B4
16,0.0047,290000,B3
16,0.0041,260000,B5
18,0.0046,260000,B6

# Biological target: T4, Full-length Cyno 4-1BB
# Experiment: flow cytometry on Jurkat cells transfected with cynomolgus 4-1BB, goat anti-human Fc secondary antibody, MFI (Mean)
# Experimental: Serial dilutions of ADAPTIR™ constructs were incubated with transfected target cells and subsequently labelled with a fluorescently-conjugated goat-a-human Fc secondary antibody. […] (See Example 25.)
row,EC50 (read off the curve) [nM],Binder
1,~0.4,B1
2,~0.3,B2
3,~0.3,B4
4,~0.3,B3
5,~0.3,B5
6,~0.3,B6

# Biological target: T2, Human OX40 ECD-AFH
# Experiment: SPR, construct captured, monomeric ECD as analyte
Kd [nM],koff [s⁻¹],kon [M⁻¹ s⁻¹],Binder
0.5,0.00031,680000,B1
0.6,0.00041,630000,B2
0.4,0.0003,710000,B3

# Biological target: T5, Human 4-1BB ECD-AFH
# Experiment: SPR, construct captured, monomeric ECD as analyte
# Target sequence in this assay (chain, as listed by the source limits assumed): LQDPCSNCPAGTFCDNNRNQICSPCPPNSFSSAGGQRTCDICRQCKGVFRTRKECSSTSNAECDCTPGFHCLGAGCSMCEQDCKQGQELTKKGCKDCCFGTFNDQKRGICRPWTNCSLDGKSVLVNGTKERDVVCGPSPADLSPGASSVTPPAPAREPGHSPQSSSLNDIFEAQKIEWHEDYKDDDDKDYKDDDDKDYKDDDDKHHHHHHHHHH
Kd [nM],koff [s⁻¹],kon [M⁻¹ s⁻¹],Binder
15,0.0045,290000,B1
16,0.0046,290000,B2
15,0.0043,290000,B3

# Biological target: T6, Full-length Human 4-1BB (human, UniProt Q07011 24-255)
# T6 construct: also called FOB005; CD137
# Experiment: flow cytometry, Jurkat cells expressing human 4-1BB
EC50 [nM],max MFI [MFI],Binder
0.23,4710,B1
0.25,4850,B2
0.18,4850,B3
